# In article PMC3205447:
# Tests used:
# [1] = target: TRAF6 (UniProt P70196); assay: anti-TRAF6 IP, TAX1BP1 immunoblot; details: reference: wild type; sites S593,S624
# [2] = target: TRAF2 (UniProt P39429); assay: anti-TRAF2 IP, TAX1BP1 immunoblot; details: reference: wild type; sites S593,S624
# UniProt P39429, sequence (P39429 whole entry, looked up): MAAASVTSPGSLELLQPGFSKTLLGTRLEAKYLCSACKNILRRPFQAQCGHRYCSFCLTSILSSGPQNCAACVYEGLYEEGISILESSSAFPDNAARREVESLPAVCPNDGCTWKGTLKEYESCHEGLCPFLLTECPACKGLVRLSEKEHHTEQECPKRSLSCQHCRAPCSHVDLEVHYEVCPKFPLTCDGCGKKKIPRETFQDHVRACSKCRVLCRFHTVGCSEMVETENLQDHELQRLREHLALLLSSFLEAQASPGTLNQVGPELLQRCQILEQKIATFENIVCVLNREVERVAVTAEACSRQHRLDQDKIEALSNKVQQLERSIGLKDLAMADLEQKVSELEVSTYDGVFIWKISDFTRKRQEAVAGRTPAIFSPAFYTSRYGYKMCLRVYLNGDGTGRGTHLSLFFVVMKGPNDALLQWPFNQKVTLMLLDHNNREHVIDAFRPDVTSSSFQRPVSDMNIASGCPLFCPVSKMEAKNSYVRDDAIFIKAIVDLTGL
# UniProt P70196, sequence (P70196 whole entry, looked up): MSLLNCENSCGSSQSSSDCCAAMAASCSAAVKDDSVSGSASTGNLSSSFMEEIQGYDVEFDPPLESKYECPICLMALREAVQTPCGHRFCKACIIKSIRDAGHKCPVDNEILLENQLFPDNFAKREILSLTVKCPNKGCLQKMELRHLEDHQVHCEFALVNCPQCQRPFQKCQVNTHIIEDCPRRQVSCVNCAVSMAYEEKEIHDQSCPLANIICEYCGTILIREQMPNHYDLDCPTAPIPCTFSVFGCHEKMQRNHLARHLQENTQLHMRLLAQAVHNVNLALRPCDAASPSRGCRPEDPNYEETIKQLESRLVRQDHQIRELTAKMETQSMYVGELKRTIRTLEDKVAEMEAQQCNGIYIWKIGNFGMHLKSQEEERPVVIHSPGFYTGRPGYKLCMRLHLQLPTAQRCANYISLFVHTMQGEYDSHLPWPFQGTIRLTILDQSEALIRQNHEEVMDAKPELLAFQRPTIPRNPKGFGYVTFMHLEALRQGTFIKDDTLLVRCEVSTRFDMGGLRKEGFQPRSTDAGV
substance,measurement,setting,value
"TAX1BP1 (Flag-tagged, amino acids 1–747) 1-747 (from UniProt Q86VP1-2) S593A, S624A",binding against the reference,[1],lost
same,binding against the reference,[2],lost
